Drawing on PMC4176167, “Solution structure and intramolecular exchange of methyl-cytosine binding domain protein 4 (MBD4) on DNA suggests a mechanism to scan for mCpG/TpG mismatches”, this text covers binding result and Kd for 8 molecules.

The target of series [1] is T1, cMBD2 MBD (NMR) (UniProt Q5EFL0 2-70). The series is described as follows: NMR (TROSY HSQC); fast exchange between sites; SPR running buffer: 10 mM HEPES pH 7.4, 50 mM NaCl, 3 mM MgCl2, 0.1 mM EDTA, 1 mM DTT, 0.1% BSA, 0.005% polysorbate 20 (samples prepared at pH 6.5); temperature not given; NMR buffer not given (low salt, up to 100 mM NaCl in titration). Conditions: protein: recombinant; tags: tags removed by thrombin; blunt.
T1 sequence (Q5EFL0 entry or part of it): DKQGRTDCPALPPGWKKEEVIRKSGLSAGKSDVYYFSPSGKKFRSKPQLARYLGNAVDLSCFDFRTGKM

Series [2] deals with Trx-His6-MBD4 MBD Y109F (SPR) (Homo sapiens, UniProt O95243 80-148, Y109F). The experiment in a line: SPR; SPR running buffer: 10 mM HEPES pH 7.4, 50 mM NaCl, 3 mM MgCl2, 0.1 mM EDTA, 1 mM DTT, 0.1% BSA, 0.005% polysorbate 20 (samples prepared at pH 6.5); temperature not given; NMR buffer not given (low salt, up to 100 mM NaCl in titration). The conditions noted are these: protein: recombinant, tags: N-terminal thioredoxin and His6 fusion, retained for SPR, label: 3' biotin on strand 1 (SPR only), blunt. On the technique in general: In SPR one partner is held on a chip, and binding of the other changes the refractive index at the surface.
Chain of Trx-His6-MBD4 MBD Y109F (SPR) (O95243 80-148 Y109F): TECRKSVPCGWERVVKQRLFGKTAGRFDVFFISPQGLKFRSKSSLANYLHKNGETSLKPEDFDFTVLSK

Another series addresses Trx-His6-MBD4 MBD (SPR) (Homo sapiens, UniProt O95243 80-148). The description is as above. Conditions: protein: recombinant, tags: N-terminal thioredoxin and His6 fusion (modified pET32a), retained for SPR, label: 3' biotin on strand 1 (SPR only), blunt.
The target in series [3] is T1, cMBD2 MBD (NMR). The experiment in a line: NMR (TROSY HSQC); slow to intermediate exchange between sites; SPR running buffer: 10 mM HEPES pH 7.4, 50 mM NaCl, 3 mM MgCl2, 0.1 mM EDTA, 1 mM DTT, 0.1% BSA, 0.005% polysorbate 20 (samples prepared at pH 6.5); temperature not given; NMR buffer not given (low salt, up to 100 mM NaCl in titration). The conditions noted are these: protein: recombinant; tags: tags removed by thrombin; blunt.

The target of series [4] is T1, cMBD2 MBD (NMR). The series is described as follows: NMR (HSQC, Nz-exchange); SPR running buffer: 10 mM HEPES pH 7.4, 50 mM NaCl, 3 mM MgCl2, 0.1 mM EDTA, 1 mM DTT, 0.1% BSA, 0.005% polysorbate 20 (samples prepared at pH 6.5); temperature not given; NMR buffer not given (low salt, up to 100 mM NaCl in titration). The conditions noted are these: protein: recombinant; tags: tags removed by thrombin; blunt.

Setting [5] is: one G:T mismatch (strand 1 G10, strand 2 T8).

Chain of Trx-His6-MBD4 MBD (SPR) (O95243 80-148): as the sequence (O95243 80-148 Y109F) above, with F30Y counted along it

B1: Tandem (20 bp) (dsDNA)
DNA 1: GGATCGGCTCGGACCGACTC
DNA 2: GAGTCGGTCCGAGCCGATCC
modifications: 5-methyl-C at strand 1 positions 5 and 15 and strand 2 positions 5 and 15
For the molecule B1, the binding result in the series with cMBD2 MBD (NMR) [1] is “binds”.

B2: mCpG (17 bp) (dsDNA)
DNA 1: GAGGCGCTCGGCGGCAG
DNA 2: CTGCCGCCGAGCGCCTC
modifications: 5-methyl-C at strand 1 position 9 and strand 2 position 8
The Kd is the constant that tells how readily two partners part at equilibrium. On to B2, for which the figures for the Kd (in series [2]; in the series with Trx-His6-MBD4 MBD (SPR)) were 7.9 ± 1.6 µM and 6.4 ± 1.5 µM, respectively.

B3: hmCpG (17 bp) (dsDNA)
DNA 1: GAGGCGCTCGGCGGCAG
DNA 2: CTGCCGCCGAGCGCCTC
modifications: 5-hydroxymethyl-C at strand 1 position 9 and strand 2 position 8
Regarding B3, in series [2], the equilibrium dissociation constant (Kd) is 16 ± 3 µM.

B4: Tandem (30 bp) (dsDNA)
DNA 1: CACGGATCGGCTCCCCCGAGTCGGTCCCGC
DNA 2: GCGGGACCGACTCGGGGGAGCCGATCCGTG
modifications: 5-methyl-C at strand 1 positions 8 and 22 and strand 2 positions 8 and 22
B4: the binding result in the series with cMBD2 MBD (NMR) [3] was “binds”.

B5: mCpG (10 bp), wild-type (dsDNA)
DNA 1: GGATCGGCTC
DNA 2: GAGCCGATCC
modifications: 5-methyl-C at position 5 of both strands
In the case of B5, the binding result in the series with cMBD2 MBD (NMR) [4] is “binds”.

B6: mCpG/TpG mismatch (17 bp) (dsDNA)
DNA 1: GAGGCGCTCGGCGGCAG
DNA 2: CTGCCGCTGAGCGCCTC
modifications: 5-methyl-C at strand 1 position 9
As to B6, the figures for the Kd (in series [2] (setting [5]); with Trx-His6-MBD4 MBD (SPR) (setting [5])) were 14 ± 1.4 µM and 11.5 ± 1.2 µM, respectively.

B7: Inverted (10 bp) (dsDNA)
DNA 1: GGACCGACTC
DNA 2: GAGTCGGTCC
modifications: 5-methyl-C at position 5 of both strands
On to B7, for which the binding result with cMBD2 MBD (NMR) [4] is recorded as “binds”.

B8: CpG (17 bp) (dsDNA)
DNA 1: GAGGCGCTCGGCGGCAG
DNA 2: CTGCCGCCGAGCGCCTC
Regarding B8, the Kd in series [2] came to 19.6 ± 3.5 µM.
